T1: Recombinant human B7-1/CD80 Fc chimera (Cat. 140-B1-100, R&D Systems) (human, UniProt P33681 35-242)
T1 construct: extracellular domain; also called B7-1 antigen; Fc part of the bought chimera not given; not described
T1 sequence (looked up): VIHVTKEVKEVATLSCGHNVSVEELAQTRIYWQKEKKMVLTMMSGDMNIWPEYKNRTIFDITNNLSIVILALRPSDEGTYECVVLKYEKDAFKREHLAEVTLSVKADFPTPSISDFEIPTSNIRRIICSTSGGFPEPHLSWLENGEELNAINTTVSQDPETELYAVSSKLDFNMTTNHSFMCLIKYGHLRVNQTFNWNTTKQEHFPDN

T2: Recombinant human B7-2/CD86 Fc chimera (Cat. 141-B2-100, R&D Systems) (human, UniProt P42081 26-245)
T2 construct: Fc part of the bought chimera not given; not described
T2 sequence (looked up): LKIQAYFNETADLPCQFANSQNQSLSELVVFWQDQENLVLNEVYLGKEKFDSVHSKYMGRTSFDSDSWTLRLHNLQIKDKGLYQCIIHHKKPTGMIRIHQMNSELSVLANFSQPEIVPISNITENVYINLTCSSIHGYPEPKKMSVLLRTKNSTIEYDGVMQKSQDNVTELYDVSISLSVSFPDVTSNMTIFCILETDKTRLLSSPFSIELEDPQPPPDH


Experiments:
NGF = test: cell-based or functional assay
TNF-alpha = test: cell-based or functional assay
[1] = target: T1, Recombinant human B7-1/CD80 Fc chimera …; test: direct bind ELISA, coated recombinant human B7-1/CD80 Fc chimera
Description: Enzyme Linked Immunosorbent Assays (ELISA) to screen for antibodies that bind a desired target antigen were performed as follows. High bind ELISA plates (Corning Costar #3369, Acton, Mass.) were coated with 100 μL/well of 10 μg/ml of desired target antigen (R&D Systems, Minneapolis, Minn.) or desired target antigen extra-cellular domain/FC fusion protein (R&D Systems, Minneapolis, Minn.) or monoclonal mouse anti-polyHistidine antibody (R&D Systems #MAB050, Minneapolis, Minn.) in phosphate buffered saline (10×PBS, Abbott Bioresearch Center, Media Prep#MPS-073, Worcester, Mass.) overnight at 4° C. Plates were washed four times with PBS containing 0.02% Tween 20. Plates were blocked by the addition of 300 μL/well blocking solution (non-fat dry milk powder, various retail suppliers, diluted to 2% in PBS) for ½ hour at room temperature. Plates were washed four times after blocking with PBS containing 0.02% Tween 20.
One hundred microliters of 10 ng/mL goat anti-human IgG-FC specific HRP conjugated antibody (Southern Biotech #2040-05, Birmingham, Ala.) was added to each well of the desired target antigen plate or anti-polyHistidine antibody/Histidine tagged desired target antigen plate. Alternatively, one hundred microliters of 10 ng/mL goat anti-human IgG-kappa light chain specific HRP conjugated antibody (Southern Biotech #2060-05 Birmingham, Ala.) was added to each well of the desired target antigen/FC fusion plate and incubated for 1 hour at room temperature. Plates were washed 4 times with PBS containing 0.02% Tween 20.
One hundred microliters of enhanced TMB solution (Neogen Corp. #308177, K Blue, Lexington, Ky.) was added to each well and incubated for 10 minutes at room temperature. The reaction was stopped by the addition of 50 μL 1N sulphuric acid. Plates were read spectrophotometrically at a wavelength of 450 nm

[2] = target: T1, Recombinant human B7-1/CD80 Fc chimera …; test: competitive ELISA; coated CD28 Fc, biotinylated B7-1/CD80 Fc (2 nM), construct titrated
Description: (§1) ELISA plates (Nunc, MaxiSorp, Rochester, N.Y.) were incubated overnight at 4° C. with Recombinant Human CD28 Fc Chimera (Cat. #342-CD-200). Plates were washed three times in washing buffer (PBS containing 0.05% Tween 20), and blocked for 1 hour at 25° C. in blocking buffer (PBS containing 1% BSA). Wells were washed three times, and serial dilutions of each antibody or DVD-Ig in PBS containing 0.1% BSA were added to the wells and incubated at 25° C. for 1 hour. The wells were washed three times, and biotinylated antigen (2 nM) was added to the plates and incubated for 1 hour at 25° C. The wells were washed three times and incubated for 1 hour at 25° C. with streptavidin-HRP (KPL #474-3000, Gaithersburg, Md.). The wells were washed three times, and 100 μl of ULTRA-TMB ELISA (Pierce, Rockford, Ill.) was added per well. Following color development the reaction was stopped with 1N HCL and absorbance at 450 nm was measured. Recombinant human B7-1/CD80 Fc chimera (Cat. 140-B1-100, R&D Systems, Minneapolis, Minn.) was used.

[3] = target: T2, Recombinant human B7-2/CD86 Fc chimera …; test: competitive ELISA; coated CD28 Fc, biotinylated B7-2/CD86 Fc, construct titrated
Description: as §1
Recombinant human B7-2/CD86 Fc chimera (Cat. 141-B2-100, R&D Systems, Minneapolis, Minn.) was used.

Binder | C-terminal Bioassay Mean (IC50, nM): Cell Impedance assay (NGF) [nM] | C-terminal Bioassay Mean (IC50, nM): pERK assay (NGF) [nM] | N-terminal L929 Assay (EC50, pM) (TNF-alpha) [pM] | EC50 [1] [nM] | EC50 [2] [nM] | EC50 [3] [nM]
RAB028 (other) VH: EVQLVQSGAEVKKPGASVKVSCKASGYTFTKYWLGWVRQAPGQGLEWMGDIYPGYDYTHYNEKFKDRVTLTTDTSTSTAYMELRSLRSDDTAVYYCARSDGSSTYWGQGTLVTVSS VL: LPAQVAFTPYAPEPGSTCRLREYYDQTAQMCCSKCSPGQHAKVFCTKTSDTVCDSCEDSTYTQLWNWVPECLSCGSRCSSDQVETQACTREQNRICTCRPGWYCALSKQEGCRLCAPLRKCRPGFGVARPGTETSDVVCKPCAPGTFSNTTSSTDICRPHQICNVVAIPGNASMDAVCTSTSPTRSMAPGAVHLPQPVSTRSQHTQPTPEPSTAPSTSFLLPMGPSPPAEGSTGDTVAAPDVLMTQTPLSLPVTPGEPASISCTSSQNIVHSNGNTYLEWYLQKPGQSPQLLIYKVSNRFSGVPDRFSGSGSGTDFTLKISRVEAEDVGVYYCFQVSHVPYTFGGGTKVEIKR | – | – | 90 | – | – | –
RAB027 (other) VH: LPAQVAFTPYAPEPGSTCRLREYYDQTAQMCCSKCSPGQHAKVFCTKTSDTVCDSCEDSTYTQLWNWVPECLSCGSRCSSDQVETQACTREQNRICTCRPGWYCALSKQEGCRLCAPLRKCRPGFGVARPGTETSDVVCKPCAPGTFSNTTSSTDICRPHQICNVVAIPGNASMDAVCTSTSPTRSMAPGAVHLPQPVSTRSQHTQPTPEPSTAPSTSFLLPMGPSPPAEGSTGDASTKGPEVQLVQSGAEVKKPGASVKVSCKASGYTFTKYWLGWVRQAPGQGLEWMGDIYPGYDYTHYNEKFKDRVTLTTDTSTSTAYMELRSLRSDDTAVYYCARSDGSSTYWGQGTLVTVSS VL: DVLMTQTPLSLPVTPGEPASISCTSSQNIVHSNGNTYLEWYLQKPGQSPQLLIYKVSNRFSGVPDRFSGSGSGTDFTLKISRVEAEDVGVYYCFQVSHVPYTFGGGTKVEIKR | – | – | 30 | – | – | –
RAB014 (other, rDVD-Ig with LEA29Y on the heavy chain only and a long linker; also called RAB014H; RAB014L) VH: AMHVAQPAVVLASSRGIASFVCEYASPGKYTEVRVTVLRQADSQVTEVCAATYMMGNELTFLDDSICTGTSSGNQVNLTIQGLRAMDTGLYICKVELMYPPPYYEGIGNGTQIYVIDPEPCPDSDASTKGPSVFPLAPEVQLVQSGAEVKKPGASVKVSCKASGYTFTKYWLGWVRQAPGQGLEWMGDIYPGYDYTHYNEKFKDRVTLTTDTSTSTAYMELRSLRSDDTAVYYCARSDGSSTYWGQGTLVTVSS VL: DVLMTQTPLSLPVTPGEPASISCTSSQNIVHSNGNTYLEWYLQKPGQSPQLLIYKVSNRFSGVPDRFSGSGSGTDFTLKISRVEAEDVGVYYCFQVSHVPYTFGGGTKVEIKR | – | – | – | 1.5 | 1.7 | 1.1
RAB020 (other, rDVD-Ig with LEA29Y on the heavy chain only and a QH linker; also called RAB020H; RAB020L) VH: AMHVAQPAVVLASSRGIASFVCEYASPGKYTEVRVTVLRQADSQVTEVCAATYMMGNELTFLDDSICTGTSSGNQVNLTIQGLRAMDTGLYICKVELMYPPPYYEGIGNGTQIYVIDPEPCPDSDQEPKSSDKTHTSPEVQLVQSGAEVKKPGASVKVSCKASGYTFTKYWLGWVRQAPGQGLEWMGDIYPGYDYTHYNEKFKDRVTLTTDTSTSTAYMELRSLRSDDTAVYYCARSDGSSTYWGQGTLVTVSS VL: DVLMTQTPLSLPVTPGEPASISCTSSQNIVHSNGNTYLEWYLQKPGQSPQLLIYKVSNRFSGVPDRFSGSGSGTDFTLKISRVEAEDVGVYYCFQVSHVPYTFGGGTKVEIKR | – | – | – | 1.2 | 1.7 | 1

Results, then the binder that gave them:

C-terminal Bioassay Mean (IC50, nM): Cell Impedance assay (NGF) [nM] | C-terminal Bioassay Mean (IC50, nM): pERK assay (NGF) [nM] | N-terminal L929 Assay (EC50, pM) (TNF-alpha) [pM] | EC50 [1] [nM] | EC50 [2] [nM] | EC50 [3] [nM] | Binder
1.6 | 0.6 | 50 | – | – | – | RAB030 (other) VH: LPAQVAFTPYAPEPGSTCRLREYYDQTAQMCCSKCSPGQHAKVFCTKTSDTVCDSCEDSTYTQLWNWVPECLSCGSRCSSDQVETQACTREQNRICTCRPGWYCALSKQEGCRLCAPLRKCRPGFGVARPGTETSDVVCKPCAPGTFSNTTSSTDICRPHQICNVVAIPGNASMDAVCTSTSPTRSMAPGAVHLPQPVSTRSQHTQPTPEPSTAPSTSFLLPMGPSPPAEGSTGDASTKGPQVQLQESGPGLVKPSETLSLTCTVSGFSLIGYDLNWIRQPPGKGLEWIGIIWGDGTTDYNSAVKSRVTISKDTSKNQFSLKLSSVTAADTAVYYCARGGYWYATSYYFDYWGQGTLVTVSS VL: DIQMTQSPSSLSASVGDRVTITCRASQSISNNLNWYQQKPGKAPKLLIYYTSRFHSGVPSRFSGSGSGTDFTFTISSLQPEDIATYYCQQEHTLPYTFGQGTKLEIKR
1.1 | 0.5 | 120 | – | – | – | RAB031 (other) VH: QVQLQESGPGLVKPSETLSLTCTVSGFSLIGYDLNWIRQPPGKGLEWIGIIWGDGTTDYNSAVKSRVTISKDTSKNQFSLKLSSVTAADTAVYYCARGGYWYATSYYFDYWGQGTLVTVSS VL: LPAQVAFTPYAPEPGSTCRLREYYDQTAQMCCSKCSPGQHAKVFCTKTSDTVCDSCEDSTYTQLWNWVPECLSCGSRCSSDQVETQACTREQNRICTCRPGWYCALSKQEGCRLCAPLRKCRPGFGVARPGTETSDVVCKPCAPGTFSNTTSSTDICRPHQICNVVAIPGNASMDAVCTSTSPTRSMAPGAVHLPQPVSTRSQHTQPTPEPSTAPSTSFLLPMGPSPPAEGSTGDTVAAPDIQMTQSPSSLSASVGDRVTITCRASQSISNNLNWYQQKPGKAPKLLIYYTSRFHSGVPSRFSGSGSGTDFTFTISSLQPEDIATYYCQQEHTLPYTFGQGTKLEIKR

— US20140219913A1 (AbbVie / Abbott, published 2014)
